PMC7579404, “A Novel KPC Variant KPC-55 in Klebsiella pneumoniae ST307 of Reinforced Meropenem-Hydrolyzing Activity” (Frontiers in Microbiology, 2020)

What was measured:
[1] = test system: CC(C)(O/N=C(\C(=O)N[C@@H]1C(=O)N2C(C(=O)[O-])=C(C[n+]3ccccc3)CS[C@H]12)c1csc(N)n1)C(=O)O; experiment: purified protein; format: biochemical, Klebsiella pneumoniae; details: 50 mM morpholinepropanesulfonic acid pH 7.0, 50 mM NaCl, 100 mM sodium phosphate pH 7.0, 30°C
[2] = test system: CC(C)(O/N=C(\C(=O)N[C@@H]1C(=O)N2C(C(=O)[O-])=C(C[n+]3ccccc3)CS[C@H]12)c1csc(N)n1)C(=O)O; experiment: purified protein; details: 50 mM morpholinepropanesulfonic acid pH 7.0, 50 mM NaCl, 100 mM sodium phosphate pH 7.0, 30°C

| Substance | Km [1] [µM] | kcat [1] [s⁻¹] | kcat/Km [1] [M⁻¹ s⁻¹] | Km [2] [µM] | kcat [2] [s⁻¹] | kcat/Km [2] [M⁻¹ s⁻¹] |
| --- | --- | --- | --- | --- | --- | --- |
| KPC-2 (and its variant KPC-55 = KPC-2 Y264N) (Klebsiella pneumoniae) | 0.28 ± 0.09 | 0.02 ± 0.003 | 70000 ± 20000 | – | – | – |
| KPC-2 (and its variant KPC-55 = KPC-2 Y264N) (Klebsiella pneumoniae; Y262N) | – | – | – | 0.40 ± 0.11 | 0.2 | 450000 |
